From IntAct's records for PubMed 18075593 come the findings set out here.

This assay has as its target cry1_mouse Cry1 (UniProt P97784).

Chain of cry1_mouse Cry1 (P97784 whole entry): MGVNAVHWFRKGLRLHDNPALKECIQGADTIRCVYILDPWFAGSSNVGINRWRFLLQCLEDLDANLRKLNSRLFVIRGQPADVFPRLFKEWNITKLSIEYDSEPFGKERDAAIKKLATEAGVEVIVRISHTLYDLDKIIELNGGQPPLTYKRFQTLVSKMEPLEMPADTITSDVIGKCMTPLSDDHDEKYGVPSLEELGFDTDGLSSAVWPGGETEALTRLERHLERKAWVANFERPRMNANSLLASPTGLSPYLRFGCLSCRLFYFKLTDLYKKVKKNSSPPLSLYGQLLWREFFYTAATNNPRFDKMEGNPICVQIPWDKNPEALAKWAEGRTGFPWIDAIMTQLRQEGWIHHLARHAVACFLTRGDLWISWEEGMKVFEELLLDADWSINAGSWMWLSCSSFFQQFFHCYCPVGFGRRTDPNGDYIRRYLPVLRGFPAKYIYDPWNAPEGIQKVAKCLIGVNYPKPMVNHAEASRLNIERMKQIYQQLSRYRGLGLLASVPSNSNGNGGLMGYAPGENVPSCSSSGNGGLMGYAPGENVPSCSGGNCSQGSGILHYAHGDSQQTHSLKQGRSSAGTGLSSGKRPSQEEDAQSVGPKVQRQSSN
Chain of Basic helix-loop-helix ARNT-like protein 1 (Mus musculus), Q9WTL8-2 K537R (Q9WTL8 other isoform, or with tags, fused parts or gaps K537R): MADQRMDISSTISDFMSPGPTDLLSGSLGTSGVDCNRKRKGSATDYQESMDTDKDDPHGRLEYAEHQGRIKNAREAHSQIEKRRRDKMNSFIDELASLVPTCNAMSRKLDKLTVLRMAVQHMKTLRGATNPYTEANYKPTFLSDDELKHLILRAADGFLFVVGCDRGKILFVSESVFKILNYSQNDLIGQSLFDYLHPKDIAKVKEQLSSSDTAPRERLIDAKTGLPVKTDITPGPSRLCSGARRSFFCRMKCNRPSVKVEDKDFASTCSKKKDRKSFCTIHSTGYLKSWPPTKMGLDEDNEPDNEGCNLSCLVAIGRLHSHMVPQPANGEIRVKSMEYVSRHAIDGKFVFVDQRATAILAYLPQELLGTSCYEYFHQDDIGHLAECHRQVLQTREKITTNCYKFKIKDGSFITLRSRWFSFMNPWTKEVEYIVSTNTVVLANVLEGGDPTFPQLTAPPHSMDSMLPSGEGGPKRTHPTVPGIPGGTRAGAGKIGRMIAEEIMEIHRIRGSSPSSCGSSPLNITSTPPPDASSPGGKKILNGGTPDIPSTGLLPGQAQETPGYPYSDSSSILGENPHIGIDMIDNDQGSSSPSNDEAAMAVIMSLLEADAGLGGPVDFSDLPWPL

For “Basic helix-loop-helix ARNT-like protein 1 (Mus musculus), Q9WTL8-2 K537R”, the “effect of a mutation on the interaction” value is on record as “decreasing interaction strength”.
